Experimental data as given in US10967068B2, “Stability-modulating linkers for use with antibody drug conjugates” (priority 2014, dated 2021).
*1 amine or outer side, *2 acyl side, *3 side chain or, on linkers, in order; H or OH if unused. Where a SMILES comes first, the peptide text is derived from it. [ ]: non-standard residue; d: D form. The star is where a group is joined. Dolaproine = CO[C@@H]([C@@H]1CCCN1)[C@@H](C)C(=O)O; Dil = CC[C@H](C)[C@H](NC)[C@@H](CC(=O)O)OC; PABC = O=C(OCc1ccc(N[*:1])cc1)[*:2]; Doe = c1ccc(C[C@H](N*)c2nccs2)cc1; Glyceroyl(2S) = O=C([C@@H](O)CO)*; Cit = NC(=O)NCCC[C@H](N)C(=O)O; Lac = C[C@H](O)C(=O)O; Me2Gly = CN(C)CC(=O)*; Aib = CC(C)(N)C(=O)O; Moc = COC(=O)*

Assay: In Vitro Stability Assay—Mouse Plasma
Assay type: in vitro ADME
Conditions: for Conjugate stability (%): % DAR remaining after plasma 3 or 4.5 days; for DAR: before plasma incubation
[1] = Trop-2 antibody attachment position TG6, HIC or mass spectrometry

Protocol: 100-200 ug of ADC were incubated in mouse plasma (provided by Bioreclamation) supplemented with 1×PBS to the final ADC concentration of 0.125 mg/mL. Following incubation for 3-7 days, samples were diluted with an equal volume of 1×PBS, and ADCs were isolated using Trop2 antigen coupled to CNBr-activated Sepharose (GE Healthcare) using standard protocols. Drug-antibody ratios were assessed before and after in vitro exposure using HIC methods and mass spectrometry.
DAR values for conjugates purified after plasma incubation were compared to DAR values prior to plasma treatment.

| Compound | DAR after plasma incubation for 3 to 4.5 days (attachment position L11B) | Conjugate stability (%) (attachment position L11B) | DAR (attachment position L11B) | further results |
| --- | --- | --- | --- | --- |
| CC[C@H](C)[C@@H]([C@@H](CC(=O)N1CCC[C@H]1[C@H](OC)[C@@H](C)C(=O)N[C@@H](Cc1ccccc1)c1nccs1)OC)N(C)C(=O)[C@@H](NC(=O)C(C)(C)NC(=O)OCc1ccc(NC(=O)[C@H](CCCNC(N)=O)NC(=O)[C@@H](NC(=O)[C@H](CCCCN)NC(=O)[C@@H](O)CO)C(C)C)cc1)C(C)C [Example 42, N˜2˜-[(2S)-2,3-dihydroxypropanoyl]-L-lysylvalyl-N-{4-[(8S,11S,12R)-11-[(2S)-butan-2-yl]-12-(2-{(2S)-2-[(1R,2R)-1-methoxy-2-methyl-3-oxo-3-{[(1S)-2-phenyl-1-(1,3-thiazol-2-yl)ethyl]amino}propyl]pyrrolidin-1-yl}-2-oxoethyl)-5,5,10-trimethyl-3,6,9-trioxo-8-(propan-2-yl)-2,13-dioxa-4,7,10-triazatetradec-1-yl]phenyl}-N˜5˜-carbamoyl-L-ornithinamide] ({Glyceroyl(2S)}-KV[Cit][PABC][Aib]V[Dil][Dolaproine]-Doe) | 1.60 | 85% | 1.87 | – |
| CC[C@H](C)[C@@H]([C@@H](CC(=O)N1CCC[C@H]1[C@H](OC)[C@@H](C)C(=O)N[C@@H](Cc1ccccc1)c1nccs1)OC)N(C)C(=O)[C@@H](NC(=O)C(C)(C)NC(=O)OCc1ccc(NC(=O)[C@H](CCCNC(N)=O)NC(=O)[C@@H](NC(=O)[C@H](CCCCN)NC(=O)CN(C)C)C(C)C)cc1)C(C)C [Example 28, N,N-dimethylglycyl-L-lysylvalyl-N-{4-[(8S,11S,12R)-11-[(2S)-butan-2-yl]-12-(2-{(2S)-2-[(1R,2R)-1-methoxy-2-methyl-3-oxo-3-{[(1S)-2-phenyl-1-(1,3-thiazol-2-yl)ethyl]amino}propyl]pyrrolidin-1-yl}-2-oxoethyl)-5,5,10-trimethyl-3,6,9-trioxo-8-(propan-2-yl)-2,13-dioxa-4,7,10-triazatetradec-1-yl]phenyl}-N˜5˜-carbamoyl-L-ornithinamide] (Me2Gly-KV[Cit][PABC][Aib]V[Dil][Dolaproine]-Doe) | 0.07 | 4% | 1.83 | – |
| CC[C@H](C)[C@@H]([C@@H](CC(=O)N1CCC[C@H]1[C@H](OC)[C@@H](C)C(=O)N[C@@H](Cc1ccccc1)c1nccs1)OC)N(C)C(=O)[C@@H](NC(=O)C(C)(C)NC(=O)OCc1ccc(NC(=O)[C@H](CCCNC(N)=O)NC(=O)[C@@H](NC(=O)[C@H](CCCCN)NC(=O)OC)C(C)C)cc1)C(C)C [Example 32, N˜2˜-(methoxycarbonyl)-L-lysylvalyl-N-{4-[(8S,11S,12R)-11-[(2S)-butan-2-yl]-12-(2-{(2S)-2-[(1R,2R)-1-methoxy-2-methyl-3-oxo-3-{[(1S)-2-phenyl-1-(1,3-thiazol-2-yl)ethyl]amino}propyl]pyrrolidin-1-yl}-2-oxoethyl)-5,5,10-trimethyl-3,6,9-trioxo-8-(propan-2-yl)-2,13-dioxa-4,7,10-triazatetradec-1-yl]phenyl}-N˜5˜-carbamoyl-L-ornithinamide] (Moc-KV[Cit][PABC][Aib]V[Dil][Dolaproine]-Doe) | 0.08 | 5% | 1.53 | – |
| CC[C@H](C)[C@@H]([C@@H](CC(=O)N1CCC[C@H]1[C@H](OC)[C@@H](C)C(=O)N[C@@H](Cc1ccccc1)c1nccs1)OC)N(C)C(=O)[C@@H](NC(=O)C(C)(C)NC(=O)OCc1ccc(NC(=O)[C@H](CCCNC(N)=O)NC(=O)[C@@H](NC(=O)[C@H](CCCCN)NC(=O)[C@H](C)O)C(C)C)cc1)C(C)C [Example 40, N˜2˜-[(2S)-2-hydroxypropanoyl]-L-lysylvalyl-N-{4-[(8S,11S,12R)-11-[(2S)-butan-2-yl]-12-(2-{(2S)-2-[(1R,2R)-1-methoxy-2-methyl-3-oxo-3-{[(1S)-2-phenyl-1-(1,3-thiazol-2-yl)ethyl]amino}propyl]pyrrolidin-1-yl}-2-oxoethyl)-5,5,10-trimethyl-3,6,9-trioxo-8-(propan-2-yl)-2,13-dioxa-4,7,10-triazatetradec-1-yl]phenyl}-N˜5˜-carbamoyl-L-ornithinamide] (H-[Lac]KV[Cit][PABC][Aib]V[Dil][Dolaproine]-Doe) | 1.08 | 58% | 1.87 | – |
| CC[C@H](C)[C@@H]([C@@H](CC(=O)N1CCC[C@H]1[C@H](OC)[C@@H](C)C(=O)N[C@@H](Cc1ccccc1)c1nccs1)OC)N(C)C(=O)[C@@H](NC(=O)C(C)(C)NC(=O)OCc1ccc(NC(=O)[C@H](CCCNC(N)=O)NC(=O)[C@@H](NC(=O)[C@H](CCCCN)NC(=O)CNC(C)=O)C(C)C)cc1)C(C)C [Example 37, N-acetylglycyl-L-lysyl-L-valyl-N-{4-[(8S,11S,12R)-11-[(2S)-butan-2-yl]-12-(2-{(2S)-2-[(1R,2R)-1-methoxy-2-methyl-3-oxo-3-{[(1S)-2-phenyl-1-(1,3-thiazol-2-yl)ethyl]amino}propyl]pyrrolidin-1-yl}-2-oxoethyl)-5,5,10-trimethyl-3,6,9-trioxo-8-(propan-2-yl)-2,13-dioxa-4,7,10-triazatetradec-1-yl]phenyl}-N˜5˜-carbamoyl-L-ornithinamide] (Ac-GKV[Cit][PABC][Aib]V[Dil][Dolaproine]-Doe) | 0.85 | 44% | 1.94 | – |
| AcLys-vcMMAD [Example 9, reference compound] | – | – | – | DAR [1]: 1.97 |
| CC[C@H](C)[C@@H]([C@@H](CC(=O)N1CCC[C@H]1[C@H](OC)[C@@H](C)C(=O)N[C@@H](Cc1ccccc1)c1nccs1)OC)N(C)C(=O)[C@@H](NC(=O)C(C)(C)NC(=O)OCc1ccc(NC(=O)[C@H](CCCNC(N)=O)NC(=O)[C@@H](NC(=O)[C@H](CCCCN)NC(=O)[C@@H](N)CO)C(C)C)cc1)C(C)C [Example 38, L-seryl-L-lysylvalyl-N-{4-[(8S,11S,12R)-11-[(2S)-butan-2-yl]-12-(2-{(2S)-2-[(1R,2R)-1-methoxy-2-methyl-3-oxo-3-{[(1S)-2-phenyl-1-(1,3-thiazol-2-yl)ethyl]amino}propyl]pyrrolidin-1-yl}-2-oxoethyl)-5,5,10-trimethyl-3,6,9-trioxo-8-(propan-2-yl)-2,13-dioxa-4,7,10-triazatetradec-1-yl]phenyl}-N˜5˜-carbamoyl-L-ornithinamide] (H-SKV[Cit][PABC][Aib]V[Dil][Dolaproine]-Doe) | 1.32 | 90% | 1.47 | – |
| C6vc0101 [Example 10, reference compound] | – | – | 1.88 | DAR [1]: 1.98; DAR (attachment position H7C): 1.52; DAR (attachment position H8A): 1.78; DAR (attachment position H10): 1.72; DAR (attachment position H16): 2.00; DAR (attachment position LCQ04): 1.90; DAR (attachment position N297A): 1.89; DAR (attachment position N297Q): 3.94 |
